In patent US20100081795A1 (Bayer, published 2010) one finds Kd, koff and kon data, which are given here for one molecule.

The target in this assay is T1, purified, native RG1 protein produced in transfected BHK cells (human, UniProt Q9BUD6 27-331).
T1 construct: also called BHK-RG1; nRG1
T1 chain: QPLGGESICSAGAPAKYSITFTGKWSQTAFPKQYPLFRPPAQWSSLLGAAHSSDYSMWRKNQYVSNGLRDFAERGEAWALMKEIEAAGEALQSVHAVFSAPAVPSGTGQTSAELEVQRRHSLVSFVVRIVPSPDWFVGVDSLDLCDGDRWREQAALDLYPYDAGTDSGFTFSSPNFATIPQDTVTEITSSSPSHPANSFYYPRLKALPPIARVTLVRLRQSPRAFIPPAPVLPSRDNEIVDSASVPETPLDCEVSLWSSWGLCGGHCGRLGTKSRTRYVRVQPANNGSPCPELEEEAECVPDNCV
In words: BIAcore SPR; mab captured on anti-human IgG Fc, soluble BHK-RG1 12.5-400 nM; 1:1 Langmuir fit. On the procedure:
Kinetic constants (KD, kₐ and kd) of mab binding to native RG1 protein were determined by BIAcore using a capture format in which soluble, native RG1 protein was bound to immobilized mab on a sensor chip. ImmunoPure rabbit anti-human IgGFc (Pierce, 31142) was covalently immobilized to the Sensor Chip CM5 (Biacore, BR-1000-12) using standard amine coupling methods. 100 ug/ml antibody diluted in 10 mm acetate, pH 4.0 was used at 5 ul/min. HBS-EP (Biacore, BR-1001-88) was used as mobile phase. Unreacted sites were blocked with ethanolamine. Mabs were diluted to 200 nM with HBS and 50 μl was injected per cycle at 10 ul/min. Serial dilutions of BHK-RG1 (12.5-400 nM) were bound to the immobilized mab. Dissociation kinetics were measured immediately after the antigen injection was completed at 20 μl/min for 8 minutes. The surface was regenerated following each cycle using 25 ul of 10 mm glycine, pH 1.8 and then washed with HBS.
Typically, five concentrations and a media control were run. Data were fit to a 1:1 Langmuir model using the software provided by the instrument manufacturer (BIAevaluation 3.0), and kinetic constants were calculated. Equilibrium constants were in the nanomolar range with favorable dissociation rates (10⁻⁴ s⁻¹).

B1: human RG1 monoclonal antibody B (antibody, V domains shown)
VH: EVQLVQSGGGLVHPGGSLRLSCAGSGFTFSSYVMHWLRQAPGKGLEWVSVIGTGGVTHYADSVKGRFTISRDNAKNSLYLQMNSLRAEDMAMYYCARWGYYGSGSYENDAFDIWGQGTMVTVSS
VL: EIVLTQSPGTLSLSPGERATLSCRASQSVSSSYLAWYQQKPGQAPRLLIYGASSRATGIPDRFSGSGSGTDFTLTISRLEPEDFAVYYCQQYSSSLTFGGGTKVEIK
notes: Hybridoma-derived human antibody with a kappa light chain; also called Mab B
For B1, the Kd came out at 8.4 nM, the koff was 0.00023 s⁻¹ and the kon turned out to be 29000 M⁻¹ s⁻¹.
